Target: the molecule itself
Test: not stated; oligomeric state of the purified N/P domains and of their truncated fragments 'in solution'

B1: HMA6 nucleotide binding and phosphorylation domains (HMA6^N/P, residues 576-853) (domain or fragment, Arabidopsis thaliana, UniProt Q9SZC9 576-853, looked up)
chain: RGLLLRGGDILEKFSLVDTVVFDKTGTLTKGHPVVTEVIIPENPRHNLNDTWSEVEVLMLAAAVESNTTHPVGKAIVKAARARNCQTMKAEDGTFTEEPGSGAVAIVNNKRVTVGTLEWVKRHGATGNSLLALEEHEINNQSVVYIGVDNTLAAVIRFEDKVREDAAQVVENLTRQGIDVYMLSGDKRNAANYVASVVGINHERVIAGVKPAEKKNFINELQKNKKIVAMVGDGINDAAALASSNVGVAMGGGAGAASEVSPVVLMGNRLTQLLDAME
notes: also called N/P domain of HMA6; source: expressed and purified
With B1 the “stoichiometry N” value was 2.

B2: HMA8 nucleotide binding and phosphorylation domains (HMA8^N/P, residues 526-806) (domain or fragment, Arabidopsis thaliana, UniProt B9DFX7 526-806, looked up)
chain: RGYLIRGGDVLERLASIDCVALDKTGTLTEGRPVVSGVASLGYEEQEVLKMAAAVEKTATHPIAKAIVNEAESLNLKTPETRGQLTEPGFGTLAEIDGRFVAVGSLEWVSDRFLKKNDSSDMVKLESLLDHKLSNTSSTSRYSKTVVYVGREGEGIIGAIAISDCLRQDAEFTVARLQEKGIKTVLLSGDREGAVATVAKNVGIKSESTNYSLSPEKKFEFISNLQSSGHRVAMVGDGINDAPSLAQADVGIALKIEAQENAASNAASVILVRNKLSHVVD
notes: also called N/P domain of HMA8; source: expressed and purified
With B2 the “stoichiometry N” value was 2.

From paper PMC5089723, “Structural Insights into the Nucleotide-Binding Domains of the P1B-type ATPases HMA6 and HMA8 from Arabidopsis thaliana” (PLoS ONE, 2016)
